T1: human ADAMTS13 (human, UniProt Q76LX8 75-1427)
T1 construct: ELISA: full-length recombinant ADAMTS13 coated on plates (Technoclone); Activity assays: endogenous ADAMTS13 of normal human plasma; also called full-length human recombinant ADAMTS13; VWF-cleaving protease
T1 sequence (looked up): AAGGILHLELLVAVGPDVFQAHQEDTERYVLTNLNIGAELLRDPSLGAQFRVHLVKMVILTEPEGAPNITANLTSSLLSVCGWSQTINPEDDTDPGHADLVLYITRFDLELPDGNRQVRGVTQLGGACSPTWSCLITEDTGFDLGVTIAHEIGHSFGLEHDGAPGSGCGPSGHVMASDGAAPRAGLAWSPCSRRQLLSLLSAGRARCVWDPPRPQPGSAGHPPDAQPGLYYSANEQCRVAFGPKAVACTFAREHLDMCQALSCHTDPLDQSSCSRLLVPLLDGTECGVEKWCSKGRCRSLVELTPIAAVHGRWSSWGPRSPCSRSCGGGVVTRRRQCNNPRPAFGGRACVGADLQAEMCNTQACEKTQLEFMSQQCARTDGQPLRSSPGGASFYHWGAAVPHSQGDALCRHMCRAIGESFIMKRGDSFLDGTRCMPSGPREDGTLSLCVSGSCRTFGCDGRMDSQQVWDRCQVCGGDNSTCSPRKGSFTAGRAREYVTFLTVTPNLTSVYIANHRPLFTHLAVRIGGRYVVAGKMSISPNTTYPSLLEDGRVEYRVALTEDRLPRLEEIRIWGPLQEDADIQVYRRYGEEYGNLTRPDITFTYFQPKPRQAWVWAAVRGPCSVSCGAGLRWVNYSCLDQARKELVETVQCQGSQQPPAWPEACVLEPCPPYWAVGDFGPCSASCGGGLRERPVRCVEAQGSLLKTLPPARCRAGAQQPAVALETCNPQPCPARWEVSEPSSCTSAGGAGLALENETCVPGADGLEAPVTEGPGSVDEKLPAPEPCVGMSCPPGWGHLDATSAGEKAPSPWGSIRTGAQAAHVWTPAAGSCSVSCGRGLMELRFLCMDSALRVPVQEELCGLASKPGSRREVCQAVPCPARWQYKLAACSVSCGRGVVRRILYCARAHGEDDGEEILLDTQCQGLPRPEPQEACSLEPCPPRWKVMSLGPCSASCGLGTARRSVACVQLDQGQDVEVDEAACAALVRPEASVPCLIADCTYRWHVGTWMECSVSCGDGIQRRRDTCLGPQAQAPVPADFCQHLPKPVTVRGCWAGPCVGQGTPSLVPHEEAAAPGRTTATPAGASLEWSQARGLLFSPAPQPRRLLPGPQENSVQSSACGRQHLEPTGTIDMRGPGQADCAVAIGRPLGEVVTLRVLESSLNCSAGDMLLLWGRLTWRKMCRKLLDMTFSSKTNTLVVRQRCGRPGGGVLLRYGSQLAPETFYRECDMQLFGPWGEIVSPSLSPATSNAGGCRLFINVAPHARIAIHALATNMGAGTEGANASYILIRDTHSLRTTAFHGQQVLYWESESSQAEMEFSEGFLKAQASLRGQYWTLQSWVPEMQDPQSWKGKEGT

B1: scFv 3-301 (scFv, V domains shown)
VH: EVQLVQSGAEVKKPGSSVKVSCKASGGTFSSYAISWVRQAPGQGLEWMGGIIPILGITNYAQKFQGRVTITADESTGAAYMELSSLASEDTAVYYCARDDTGRDDYFEYWGQGTLVTVSS
VL: ELVLTQPPSVSVSPGQTARITCSGDALPKQYAYWYQQKPGQAPVLVIYKDSERPSGIPERFSGSSSGTTVTLTISGVQAEDEADYYCQSADSNGTYKVFGGGTELTVL
B2: scFv 1-303 (scFv, V domains shown)
VH: QVQLVQSGAEVKKFGSSVKVSCKASGGTFSSYTMSWVRQAPGQGLEWMGSFIPILERANYAQKFQGRVTLTADKSTSTAYMELGSLRSEDTAVYYCARDLGDFGDSWGQGTLVTVSS
VL: ELELTQPPSVSVAPGKTARITCGGNNIGSKSVHWYQQKPGQAPVLVVYDDSDRPSGIPERFSGSNSGNTATLTISRVEAGDEADYYCQVWDSSSDHYVFGTGTKVTVL
B3: scFv 2-103 (scFv, V domains shown)
VH: QVQLVQSGAEVKKPGSSVKVSCKASGGTFSSYDINWVRQAPGQGLEWMGSIIPILGISNYAQKFQGRVTITADKSTSTAYMELSSLRSEDTAVYYCARDQGYANNYGAYWGQGTLVTVSS
VL: ELVLTQPPSVSVAPGQTARITCGGNNIGSKSVHWYQQKPGQAPVVVVYDDSDRPSGIPERFSGSNSGNTATLTISRVEAGDEADYYCQVWDSSSDHWVFGGGTELTVL
B4: scFv 2-102 (scFv, V domains shown)
VH: QVQLVQSGAEVKKPGSSVKVSCRASGGTFSSYTINWVRQAPGQGLEWMGRVVPILGVTNYAQKFQGRVTITADKSTSTAYMELSSLRSEDTAVYYCARDKGYDNNYGAYWGQGTLVTVSS
VL: ELVVTQPPSVSVAPGQTARITCGGNNIGSINVHWYQQKPGQAPVLVVYDDSARPSGIPERFSGSNSGNTATLTISRVEAGDEADYYCQVWDSRSDYWVFGGGTKVTVL
B5: scFv 1-434 (scFv, V domains shown)
VH: QVQLVQSGAEVKKPGSSVKVSCKASGGSFSDYTIIWLRQARGHGLEWMGKIVPILGVTTYAQEFQGRITITADRSTSTAYMELSSLRSEDTAVYYCARFLWGLDVWGQGTTVTVSS
VL: ELVLTQPPSVSVAPGQTARITCGGNNIGSKSVHWYQQKPGQAPVLVVYDDSDRPSGIPERFSGSNSGNTATLTISRVEAGDEADYYCQVWDSSSDHVVFGGGTELTVL
B6: scFv 3-305 (scFv, V domains shown)
VH: QVQLVQSGAEVKRPGSSVKVSCKASGNTFSNYHINWVRQAPGQGLQWMGGIIPILGRTNYAQNFQGRVTITTDESTNTAYMELTSLRSEDTAVYYCAREARDSFDFWGQGTMVTVSS
VL: ELVLTQPPSVSVAPGKTARITCGGNNIGSKSVHWYQQKPGQAPVLVVYDDSDRPSGIPERFSGSNSGNTATLTISRVEAGDEADYYCQVWDSSSDHWVFGGGTQLTVL
B7: scFv 4-307 (scFv, V domains shown)
VH: QVQLVQSGAEVKKPGSSVKVSCKASGGTFSTYTINWMRQAPGQGLEWMGRIIPMFGTANYAQKFRGRVTITADESTSTAYMELSSLISEDTAIYYCARSGYSDAFDIWGQGTMVTVSS
VL: ELVLTQPPSVSVAPGTTARITCGGNNIGSKSVHWYQQKPGQAPVLVIYYDSDRPSGIPERFSGSNSGNTATLTISRVEAGDEADYYCQVWDSSSDQGVFGGGTQLTVL
B8: scFv 1-406 (scFv, V domains shown)
VH: QVQLVQSGAEVKKFGSSVKVSCKASGGMFSSYTISWVRQGPGQGLEWMGSFIPILERANYAQKFQGRVSFTADKSTSTAYMELGSLTSEDTAVYFCARDVGDFGDSWGQGTLVTVSS
VL: ELELTQPPSVSVFPGQTARITCSGDTLPKQYGNWYQQKPGQAPVVVIYKDTERPSGIPERFSGSSSGTTATLTISGVQAEDEADYYCQSADSNDWVLFGGGTKLTVL
B9: scFv z1-303 (scFv, V domains shown)
VH: QVQLQESGPGLVRPSQTLSLTCAISGDSVSNNNAAWNWIRQSPSRGLEWLGRTFYRSRWYNDYAVSVKSRIIINPDTSKNQFSLDLTSVTPEDTAVYFCAREGQWLPNYFDPWGQGTLVTVSS
VL: ELVLTQPPSVSVAPGQTARITCGGNNIGSKSVHWYQQKPGQAPVLVVYDDSDRPSGIPERFSGSNSGNTATLTISGVEVGDEADYYCQVWDSSRDHVVFGGGTELTVL
B10: scFv 2-304 (scFv, V domains shown)
VH: QVHLVQSGAEVKKPGSSVKVSCKASGGTFSSYAISWVRQAPGQGLEWMGGITPILGVTNYSQKFQGRVTVTADISTTTAYMELSSLTSEDTAVYYCARDQGYANDYGAYWGQGTLVTVSS
VL: ELVLTQPPSVSVAPGQTARITCGGNNIESKNVHWYQQKPGQAPVLVVYDDSGRPSGIPERFSGSNSGNTATLTISRVEAGDEADYYCQVWDSSSDHWVFGGGTKLTVL
B11: scFv 2-301 (scFv, V domains shown)
VH: QVQLVQSGAEVKKPGSSVKVSCKASGGTFSSYAISWVRQAPGQGLEWMGGITPILGVTNYSQKFQGRVTVTADISTTTAYMELSSLTSEDTAVYYCARDQGYANDYGAYWGQGTLVTVSS
VL: ELVLTQPPSVSVAPGQTARIICGGNNIGSKTVHWYQQKPGQAPVLVVYDDSDRPSGIPERFSGSNSGNTAALTISRVEAGDEADYYCQVWHSSSDHWVFGGGTKVTVL
B12: scFv 2-207 (scFv, V domains shown)
VH: QVQLVQSGAEVKKPGSSVKVSCKASGGTFSSYAISWVRQAPGQGLEWMGGITPILGVTNYSQKFQGRVTVTADISTTTAYMELSSLTSEDTAVYYCARDQGYANDYGAYWGQGTLVTVSS
VL: ELVLTQPPSVSVAPGQTARITCGGNNIGSKSVHWYQQKPGQAPVLVVHDDSDRPSGIPERFSGSNSGNTATLTIGRVGAGDEADYYCQVWDSSSDHWVFGGGTQLTVL
B13: scFv 1-403 (scFv, V domains shown)
VH: QVQLQESGGGVVQPGRSLRLSCAASGFTFRNYAMHWVRQAPGKGLEWVAVISYDGGKEYYADSVKGRFTISRDNSKNTLYLQMNSLRAEDTAVYYCARDTFSYYDFWRAFDYWGQGTLVTVSS
VL: ELVMTQSPSSLSASVGDTVTITCRASQSLRGYLNWYQQKPGEAPKLLIYAASTLRAGVPPRFSGAGYETDFSLTISNLQLEDFATYYCQQSHNVPLTFGGGTKVEIK
B14: scFv 4-303 (scFv, V domains shown)
VH: QVQLVQSGAEVKKPGSSVKVSCKASGGTFSNYGISWVRQAPGQGLEWMGKIIPILGITNYAQKFQGRVTITADKSTSTAYMELSSLRSEDTAVYYCARGGGSYDFFDYWGQGTLVTVSS
VL: ELELTQPPSVSVAPGKAARLSCGGEDIGIKSVHWYQQKTGRAPVLVIYNDDDRPSGIPERFAGSNSGNTATLTISRVEAGDEADYYCEVWDSLTDRVVFGGGTKLTVL
B15: scFv 2-302 (scFv, V domains shown)
VH: EVQLVQSGAEVKKPGSSVKVSCKASGGTFSSYTINWVRQAPGQGLEWMGRIIPILGIENYAQKFQGRVTISADKSTSTAYMELSSLRSDDTAVYYCARDQVFGAYWGPGTLVTVSS
VL: ELVLTQPPSVSVAPGQTAIITCGGSNIGTKSVHWYQQKSGQAPVLVVHDDAHRPSGIPERFSGSNSGNTATLTISRVEAGDEADYYCQVWESSSDHWVFGGGTKVTVL

The record followed here is patent US20190031771A1 (University of Pennsylvania, published 2019).

T2 sequence (P03452 18-528): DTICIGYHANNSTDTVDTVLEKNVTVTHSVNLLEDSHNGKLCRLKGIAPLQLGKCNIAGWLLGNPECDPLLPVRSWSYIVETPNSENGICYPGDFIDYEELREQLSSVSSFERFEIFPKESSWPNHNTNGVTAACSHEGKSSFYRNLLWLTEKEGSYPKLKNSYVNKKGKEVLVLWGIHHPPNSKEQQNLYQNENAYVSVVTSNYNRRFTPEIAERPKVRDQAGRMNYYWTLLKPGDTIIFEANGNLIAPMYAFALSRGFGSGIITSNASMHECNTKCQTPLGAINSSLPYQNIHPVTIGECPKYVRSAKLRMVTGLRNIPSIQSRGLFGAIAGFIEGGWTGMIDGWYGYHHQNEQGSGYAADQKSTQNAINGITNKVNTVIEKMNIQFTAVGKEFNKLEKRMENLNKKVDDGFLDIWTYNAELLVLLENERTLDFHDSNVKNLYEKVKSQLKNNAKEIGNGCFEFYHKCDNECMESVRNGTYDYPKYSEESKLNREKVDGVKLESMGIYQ

The first test has as its target T2, hemagglutinin ectodomain of influenza virus H1/PR/8/34 (influenza virus H1/PR/8/34, UniProt P03452 18-528).
T2 construct: extracellular domain; also called HA H1/PR/8/34
Nature of the test: immunoassay or flow cytometry. A general note: A flow cytometer gives signals particle by particle.
On to B1, for which the binding result is recorded as “no binding”.
On the same count and under the same terms, next, B2: “no binding”; B3: “no binding”.
Consider B4, for which the binding result is reported as “no binding”.
Turning to B5, the binding result is recorded as “no binding”.

The target in a further test is T1, human ADAMTS13. Kind of test: phage ELISA on ADAMTS13-coated plates (positive: >10-fold absorbance above background). On the technique in general: In an ELISA, binding on a coated surface is turned into a signal by an enzyme label.
Regarding B2, the binding result is on record as “binds”.
With B6, the binding result is on record as “binds”.
The same measure, in the same setting: next, B7: “binds”; B8: “binds”.
The same measure, in the same setting: next, B9: “binds”; B10: “binds”; B5: “binds”.
In the case of B11, the binding result was “binds”.
Still for that read-out and setting: next, B12: “binds”; B13: “binds”.
In the case of B14, the binding result is recorded as “binds”.
On the same count and under the same terms, next, B15: “binds”.
